Laboratory results as given in paper PMC8945915, “An Electrochemical Impedance Spectroscopy-Based Aptasensor for the Determination of SARS-CoV-2-RBD Using a Carbon Nanofiber–Gold Nanocomposite Modified Screen-Printed Electrode”.

Target: SARS-CoV-2 spike receptor-binding domain (SARS-CoV-2-RBD, ~35 kDa) (SARS-CoV-2, UniProt P0DTC2 319-541)
Experiment: electrochemical impedance spectroscopy (Langmuir isotherm)

B1: thiol-terminal SARS-CoV-2-RBD aptamer (ssDNA)
DNA: CAGCACCGACCTTGTGCTTTGGGAGTGCTGGTCCAAGGGCGTTAATGGACA
modifications: 5' SH-(CH2)6 thiol
- Kd: 0.42 nM
